Measured values as given in patent publication US20150329644A1 (BRIGHAM AND WOMEN S HOSPITAL, published 2015).

Molecular target: T1, Human LSD2 (residues 51-822) with N-terminal extra residues GPGS, as used for co-crystallization (human, UniProt Q8NB78 51-822)
T1 construct: range 51-822; Construct of the LSD2-NPAC (PDB 4GUT) and LSD2-NPAC-H3K4M (PDB 4GUS, 4GUR) co-crystals; also called KDM1b; AOF1
T1 sequence: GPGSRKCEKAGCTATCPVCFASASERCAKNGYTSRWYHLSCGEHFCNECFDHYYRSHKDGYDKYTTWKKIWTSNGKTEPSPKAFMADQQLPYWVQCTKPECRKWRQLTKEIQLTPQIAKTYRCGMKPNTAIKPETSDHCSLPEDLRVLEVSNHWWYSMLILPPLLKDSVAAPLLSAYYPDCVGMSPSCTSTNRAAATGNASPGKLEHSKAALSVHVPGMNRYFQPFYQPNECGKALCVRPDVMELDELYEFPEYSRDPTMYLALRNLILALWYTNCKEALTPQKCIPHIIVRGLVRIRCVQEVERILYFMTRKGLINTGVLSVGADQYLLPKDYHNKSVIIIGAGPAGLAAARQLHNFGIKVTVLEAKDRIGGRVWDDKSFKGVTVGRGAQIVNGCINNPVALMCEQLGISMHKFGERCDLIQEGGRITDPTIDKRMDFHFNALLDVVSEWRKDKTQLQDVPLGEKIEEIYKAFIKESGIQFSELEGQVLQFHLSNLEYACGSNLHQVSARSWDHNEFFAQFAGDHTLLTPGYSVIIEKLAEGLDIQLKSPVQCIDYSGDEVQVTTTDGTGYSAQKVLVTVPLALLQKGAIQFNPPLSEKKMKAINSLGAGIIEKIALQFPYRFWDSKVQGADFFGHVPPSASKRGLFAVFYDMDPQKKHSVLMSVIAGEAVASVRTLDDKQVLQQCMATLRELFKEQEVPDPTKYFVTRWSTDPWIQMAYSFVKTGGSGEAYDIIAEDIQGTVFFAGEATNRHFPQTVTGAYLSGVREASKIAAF
Assay: co-crystal structures of LSD2 with the NPAC linker region (residues 152-268)
Procedure: Crystallization and Data Collection. All crystals were grown using the hanging-drop vapor diffusion method. […] All crystals were examined on X8 Proteum system (Bruker AXS) and data sets were collected on beamline BL17U at Shanghai Synchrotron Radiation Facility (Shanghai, China).

binding result: binds
B1: NPAC linker region (residues 152-268), as used for co-crystallization (other)
chain: SERGSKSPLKRAQEQSPRKRGRPPKDEKDLTIPESSTVKGMMAGPMAAFKWQPTASEPVKDADPHFHHFLLSQTEKPAVCYQAITKKLKICEEETGSTSIQAADSTAVNGSITPTDK
notes: Expressed with His6 and GST tags that were removed by 3C protease
